Data from patent US20190300590A1 (PROTAGONIST THERAPEUTICS, published 2019).
*1 amine or outer side, *2 acyl side, *3 side chain or, on linkers, in order; H or OH if unused. Bridges are numbered along the chain shown (N, C = ends). Primed or numbered codes have the meaning given here. [ ]: non-standard residue; d: D form. Phe(4-OMe)(3) = O-methyl-L-tyrosine (4-methoxy-L-phenylalanine), COc1ccc(C[C@H](N[*:1])C(=O)[*:2])cc1; Phe(4-Oallyl) = 4-allyloxy-phenylalanine (O-allyl-tyrosine), C=CCOc1ccc(C[C@H](N[*:1])C(=O)[*:2])cc1; Phe(4-OMe) = 4-methoxy-L-phenylalanine (O-methyl-L-tyrosine), COc1ccc(C[C@H](N[*:1])C(=O)[*:2])cc1; Phe(Bzl) = read as Phe(4-OBzl), O-benzyl-L-tyrosine, O=C([C@H](Cc1ccc(OCc2ccccc2)cc1)N[*:1])[*:2]; Phe(4-OMe)″ = 4-methoxyphenylalanine, COc1ccc(C[C@H](N[*:1])C(=O)[*:2])cc1; Phe(4-OMe)(4) = O-methyl-L-tyrosine, COc1ccc(C[C@H](N[*:1])C(=O)[*:2])cc1; Phe(4-guanidino) = N=C(N)Nc1ccc(C[C@H](N)C(=O)O)cc1; Phe(4-CONH2) = NC(=O)c1ccc(C[C@H](N)C(=O)O)cc1; Phe(4-COOH) = N[C@@H](Cc1ccc(C(=O)O)cc1)C(=O)O; Tyr(Ph) = N[C@@H](Cc1ccc(Oc2ccccc2)cc1)C(=O)O; Phe(2,4-Me2) = Cc1ccc(C[C@H](N)C(=O)O)c(C)c1; Phe(4-Me) = Cc1ccc(C[C@H](N)C(=O)O)cc1; 1Nal = N[C@@H](Cc1cccc2ccccc12)C(=O)O; 2Nal = N[C@@H](Cc1ccc2ccccc2c1)C(=O)O; AEF = NCCOc1ccc(C[C@H](N)C(=O)O)cc1; αMeF = C[C@](N)(Cc1ccccc1)C(=O)O; 4Pal = N[C@@H](Cc1ccncc1)C(=O)O; αMeOrn = C[C@](N)(CCCN)C(=O)O; αMeK = C[C@](N)(CCCCN)C(=O)O; Orn = NCCC[C@H](N)C(=O)O; Abu = CC[C@H](N)C(=O)O; Dap = NC[C@H](N)C(=O)O

T1: IL23R_huFC (human, UniProt Q5VWK5 24-353)
T1 sequence (looked up): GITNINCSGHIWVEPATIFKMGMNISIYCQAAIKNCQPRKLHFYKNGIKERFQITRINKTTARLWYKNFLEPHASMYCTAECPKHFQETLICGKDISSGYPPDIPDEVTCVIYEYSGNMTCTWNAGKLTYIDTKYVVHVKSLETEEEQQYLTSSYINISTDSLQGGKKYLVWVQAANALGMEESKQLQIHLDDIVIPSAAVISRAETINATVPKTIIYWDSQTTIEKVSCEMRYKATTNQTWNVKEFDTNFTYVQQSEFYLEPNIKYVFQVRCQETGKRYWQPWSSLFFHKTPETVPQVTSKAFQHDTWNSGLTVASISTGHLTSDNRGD

B1: Ac-Cyclo-[[Abu]-STWQC]-[Phe[4-(2-aminoethoxy)]]-[2-Nal]-[α-MeLys]-KNGGE-NH2 (peptide)
peptide: Ac-[Abu]STWQC[AEF][2Nal][αMeK]KNGGE-NH2
modifications: thioether 1-6
B2: Ac-Cyclo-[[Abu]-QT-[1-Nal]-QC]-[Phe(4-OMe)]-[2-Nal]-[α-MeLys]-[Lys(Ac)]-NG-NH2 (peptide)
peptide: Ac-[Abu]QT[1Nal]QC[Phe(4-OMe)(4)][2Nal][αMeK]K(Ac)NG-NH2
modifications: thioether 1-6
B3: Ac-Cyclo-[[Abu]-DapTWQC]-[Phe[4-(2-aminoethoxy)]]-[Phe[4-(2-aminoethoxy)]]-[α-MeLys]-[Lys(Ac)]-NG-NH2 (peptide)
peptide: Ac-[Abu][Dap]TWQC[AEF][AEF][αMeK]K(Ac)NG-NH2
modifications: thioether 1-6
B4: Ac-Cyclo-[[Abu]-QTWQC]-[Phe[4-(2-aminoethoxy)]]-W-[Orn]-[Dap(Ac)]-NG-NH2 (peptide)
peptide: Ac-[Abu]QTWQC[AEF]W[Orn][Dap](Ac)NG-NH2
modifications: thioether 1-6
B5: Ac-Cyclo-[[Abu]-QTWQC]-[Phe(4-Phenoxy)]-[2-Nal][α-MeLys]-[Lys(Ac)]-NG-NH2 (peptide)
peptide: Ac-[Abu]QTWQC[Tyr(Ph)][2Nal][αMeK]K(Ac)NG-NH2
modifications: thioether 1-6
B6: Ac-Cyclo-[[Abu]-QT-[2-Nal]-QC]-[Phe(4-OMe)]-[2-Nal]-[α-MeLys]-[Lys(Ac)]-NG-NH2 (peptide)
peptide: Ac-[Abu]QT[2Nal]QC[Phe(4-OMe)(4)][2Nal][αMeK]K(Ac)NG-NH2
modifications: thioether 1-6
B7: Ac-Cyclo-[[Abu]-QT-[1,2,3,4-tetrahydro-norharman]-QC]Phe[4-(2-aminoethoxy)]]-[2-Nal]-[α-MeLys]-ENG-NH2 (peptide)
peptide: XQTXQCFXKENG
modifications: as bracketed in name; thioether cyclo
B8: Ac-Cyclo-[[Abu]-[Dap]-TWQC]-[Phe[4-(2-aminoethoxy)]]-[Phe(4-Phenoxy)]-[α-MeLys]-[Lys(Ac)]-NG-NH2 (peptide)
peptide: Ac-[Abu][Dap]TWQC[AEF][Tyr(Ph)][αMeK]K(Ac)NG-NH2
modifications: thioether 1-6
B9: Ac-Cyclo-[[Abu]-QTWQC]-[Phe[4-(2-aminoethoxy)]]-W-[Orn]-[Dap]-NG-NH2 (peptide)
peptide: Ac-[Abu]QTWQC[AEF]W[Orn][Dap]NG-NH2
modifications: thioether 1-6
B10: Ac-Cyclo-[[Abu]-QT-[Phe(2,4-Me2)]-QC]-[Phe[4-(2-aminoethoxy)]]-[2-Nal]-[α-MeLys]-ENG-NH2 (peptide)
peptide: Ac-[Abu]QT[Phe(2,4-Me2)]QC[AEF][2Nal][αMeK]ENG-NH2
modifications: thioether 1-6
B11: Ac-Cyclo-[[Abu]-QTWQC]-[4-Pyridylalanine]-[2-Nal][α-MeLys]-[Lys(Ac)]-NG-NH2 (peptide)
peptide: Ac-[Abu]QTWQC[4Pal][2Nal][αMeK]K(Ac)NG-NH2
modifications: thioether 1-6
B12: Ac-Cyclo-[[Abu]-QT-[α-MePhe]-QC]-[Phe[4-(2-aminoethoxy)]]-[2-Nal]-[α-MeLys]-ENG-NH2 (peptide)
peptide: Ac-[Abu]QT[αMeF]QC[AEF][2Nal][αMeK]ENG-NH2
modifications: thioether 1-6
B13: Ac-Cyclo-[[Abu]-QTWQC]-[Phe(4-OMe)]-W-[α-MeLys]-[Lys(Ac)]-NGE-NH2 (peptide)
peptide: Ac-[Abu]QTWQC[Phe(4-OMe)]W[αMeK]K(Ac)NGE-NH2
modifications: thioether 1-6
B14: Ac-Cyclo-[[Abu]-QTWQC]-[Phe(4-OMe)]-Phe(4-Me)-[α-MeLys]-ENG-NH2 (peptide)
peptide: Ac-[Abu]QTWQC[Phe(4-OMe)″][Phe(4-Me)][αMeK]ENG-NH2
modifications: thioether 1-6
B15: Ac-Cyclo-[[Abu]-QTWQC]-[Phe(4-OMe)]-[Phe(4-Oallyl)]-[α-MeLys]-ENG-NH2 (peptide)
peptide: Ac-[Abu]QTWQC[Phe(4-OMe)(3)][Phe(4-Oallyl)][αMeK]ENG-NH2
modifications: thioether 1-6
B16: Ac-Cyclo-[[Abu]-QTWQC]-[Phe(4-OMe)]-[Phe(Bzl)]-[α-MeLys]-ENG-NH2 (peptide)
peptide: Ac-[Abu]QTWQC[Phe(4-OMe)(3)][Phe(Bzl)][αMeK]ENG-NH2
modifications: thioether 1-6
B17: Ac-Cyclo-[[Abu]-QTWQC]-[Phe[4-(2-aminoethoxy)]]-[Phe(4-CONH2)]-[α-MeLys]-[Lys(Ac)]-NG-NH2 (peptide)
peptide: Ac-[Abu]QTWQC[AEF][Phe(4-CONH2)][αMeK]K(Ac)NG-NH2
modifications: thioether 1-6
B18: Ac-Cyclo-[[Abu]-QTWQC]-[Phe(4-OMe)]-[Phe(4-guanidino)]-[α-MeLys]-ENG-NH2 (peptide)
peptide: Ac-[Abu]QTWQC[Phe(4-OMe)(3)][Phe(4-guanidino)][αMeK]ENG-NH2
modifications: thioether 1-6
B19: Ac-Cyclo-[[Abu]-QTWQC]-[Phe[4-(2-aminoethoxy)]]-[Phe(4-CO2H)]-[α-MeLys]-[Lys(Ac)]-NG-NH2 (peptide)
peptide: Ac-[Abu]QTWQC[AEF][Phe(4-COOH)][αMeK]K(Ac)NG-NH2
modifications: thioether 1-6
B20: Ac-Cyclo-[[Abu]-QTWQC]-[Phe[4-(2-aminoethoxy)]]-[2-Nal]-[Orn]-[Lys(Ac)]-NG-NH2 (peptide)
peptide: XQTWQCFXXKNG
modifications: as bracketed in name; thioether cyclo
B21: Ac-Cyclo-[[Abu]-QTWQC]-[Phe[4-(2-aminoethoxy)]]-W-[α-Me-Orn]-[Lys(Ac)]-NG-NH2 (peptide)
peptide: Ac-[Abu]QTWQC[AEF]W[αMeOrn]K(Ac)NG-NH2
modifications: thioether 1-6

Biological target: T1, IL23R_huFC
Assay: human ELISA vs IL-23

IC50	Binder
100 to 1000 nM	B1
100 to 1000 nM	B2
100 to 1000 nM	B3
100 to 1000 nM	B4
100 to 1000 nM	B5
100 to 1000 nM	B6
100 to 1000 nM	B7
100 to 1000 nM	B8
100 to 1000 nM	B9
100 to 1000 nM	B10
100 to 1000 nM	B11
100 to 1000 nM	B12
100 to 1000 nM	B13
100 to 1000 nM	B14
100 to 1000 nM	B15
100 to 1000 nM	B16
100 to 1000 nM	B17
100 to 1000 nM	B18
100 to 1000 nM	B19

Biological target: T1, IL23R_huFC
Assay: human ELISA vs IL-23
Remark: another data set of the same source

IC50	Binder
10 to 25 nM	B20
10 to 25 nM	B21
